Six molecules from patent publication US6903077, “Methods and products for delivering nucleic acids” (University of Vermont and State Agricultural College) can be followed below.

Series [1] concerns T1, GST-Z2-P123.
T1 sequence: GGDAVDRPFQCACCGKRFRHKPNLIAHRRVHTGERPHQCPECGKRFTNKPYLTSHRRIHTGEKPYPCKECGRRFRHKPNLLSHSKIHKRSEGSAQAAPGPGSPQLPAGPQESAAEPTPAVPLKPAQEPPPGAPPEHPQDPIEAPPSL

Series [2] relates to T2, GST-Z2.
T2 sequence: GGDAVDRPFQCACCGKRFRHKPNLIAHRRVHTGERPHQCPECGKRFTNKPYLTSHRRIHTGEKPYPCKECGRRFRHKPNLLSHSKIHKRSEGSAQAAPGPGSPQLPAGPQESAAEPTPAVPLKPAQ

The test system of series [3] is T3, GST-Z3.
T3 sequence: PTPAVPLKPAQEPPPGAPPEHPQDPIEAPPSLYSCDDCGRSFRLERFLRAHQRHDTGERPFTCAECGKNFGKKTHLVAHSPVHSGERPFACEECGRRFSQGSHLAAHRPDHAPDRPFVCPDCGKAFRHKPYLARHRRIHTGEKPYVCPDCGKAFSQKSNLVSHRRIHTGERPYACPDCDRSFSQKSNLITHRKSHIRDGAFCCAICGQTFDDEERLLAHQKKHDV

Series [4] has as its system T4, GST-Z1.
T4 sequence: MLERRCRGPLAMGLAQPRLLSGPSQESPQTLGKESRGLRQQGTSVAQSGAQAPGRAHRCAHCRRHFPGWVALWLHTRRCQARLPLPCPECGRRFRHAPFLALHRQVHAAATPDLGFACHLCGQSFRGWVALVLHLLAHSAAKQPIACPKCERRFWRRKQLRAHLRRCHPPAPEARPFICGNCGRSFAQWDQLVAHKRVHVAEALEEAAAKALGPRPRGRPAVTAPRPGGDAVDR

The target in series [5] is T5, GST-Z1 (RIP60 zinc fingers 1-5) (Homo sapiens, UniProt Q9BWE0 SEQ:1-234).
T5 chain: T4 sequence
The experiment in a line: competition; not significantly competing. To be noted: tags: GST N-terminal. As to the method: (§1) Binding reactions were incubated for 20 minutes at 37° C., 15 min on ice, and then resolved on 6% native polyacrylamide gels in 0.25×TBE buffer. Gels were dried, exposed to Kodak XAR film at −80° C., and signals were detected by autoradiography. Competition binding reactions were assembled as described above with the addition of 0.5, 5, or 50 pmole of unlabeled double-stranded competitor DNA to the reactions prior to the addition of protein. For time course competition assays, 60 ul binding reactions were assembled and incubated as above. Following the incubation step on ice, 50 pmole of unlabeled DSR competitor DNA was added to the binding reactions and samples where removed at the indicated time points, loaded on a 6% native PAGE gel, and resolved by electrophoresis at 25V until all samples were loaded. After the final sample was loaded, the voltage was increased to 100V and samples were resolved by electrophoresis for an additional 1.5 hours. Signals on the dried gels were quantified on a phosphoimager (BioRad model GS 525). A value for % probe bound was calculated as a ratio of protein-bound probe to total probe (bound and unbound probe) per sample and values were plotted against time.
(§2) Binding of the GST-Z2 to the DSR probe was stable in the presence of 1000-fold excess of IBF, SV-AT, or Py-AT competitors, but was competed with 100-fold excess of unlabeled DSR DNA. […]

The target of series [6] is T6, GST-Z2 (RIP60 zinc fingers 6-8 plus part of PRR, GST-Z2-P12) (Homo sapiens, UniProt Q9BWE0 SEQ:1-126).
T6 sequence: T2 sequence
In words: competition; no competition at 1000-fold excess. To be noted: tags: GST N-terminal. Here is the method:
as §1, §2

Series [7] deals with the molecule itself. In words: Gel shift Multimers, self-association on DNA. As to the method:
as §1, with “Binding reactions (30 ul) contained 0.05 pmole labeled DSR probe, 40 mM KCl, 10 mM HEPES (pH 8.0), 4% Ficoll, 33 ng/ul poly dIdC, 1 mM DTT, 16.7 uM ZnCl_2, and 0.5–10 ug of protein. Binding” for “Binding”, “time. […]” for “time.”
In general terms: In EMSA bound probe runs differently from free probe, usually more slowly.

Series [8] has as its target T7, GST-Z12 (Homo sapiens, UniProt Q9BWE0 SEQ:1-349).
T7 chain: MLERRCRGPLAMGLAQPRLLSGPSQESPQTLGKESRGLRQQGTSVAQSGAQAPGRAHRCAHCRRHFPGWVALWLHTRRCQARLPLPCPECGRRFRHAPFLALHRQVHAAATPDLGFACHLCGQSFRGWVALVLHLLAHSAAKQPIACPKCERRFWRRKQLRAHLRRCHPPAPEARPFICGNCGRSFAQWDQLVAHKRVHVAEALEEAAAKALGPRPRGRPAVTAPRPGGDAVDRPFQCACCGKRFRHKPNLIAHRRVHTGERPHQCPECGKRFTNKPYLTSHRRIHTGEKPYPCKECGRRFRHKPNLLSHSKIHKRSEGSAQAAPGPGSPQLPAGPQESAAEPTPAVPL
In words: competition; USR competes. To be noted: tags: GST N-terminal. As to the method: as §1, §2

The target in series [9] is T6, GST-Z2 (RIP60 zinc fingers 6-8 plus …). The experiment in a line: competition; USR competes for binding to DSR. Particulars: tags: GST N-terminal. Here is the method:
as §1, §2

Series [10] deals with T5, GST-Z1 (RIP60 zinc fingers 1-5). The experiment in a line: EMSA; footprinting and gel shift; unstable binding. To be noted: tags: GST N-terminal.
The target of series [11] is T6, GST-Z2 (RIP60 zinc fingers 6-8 plus …). In words: EMSA; competed by 100-fold DSR; more stable than GST-Z1. Particulars: tags: GST N-terminal; label: 32P; 5' overhangs. Here is the method: (§3) A value for % probe bound was calculated as a ratio of protein-bound probe to total probe (bound and unbound probe) per sample and values were plotted against time.
(§4) Binding of the GST-Z2 to the DSR probe was stable in the presence of 1000-fold excess of IBF, SV-AT, or Py-AT competitors, but was competed with 100-fold excess of unlabeled DSR DNA. […] In contrast, binding of GST-Z3 to the DSR probe was eliminated by a 1000-fold excess of all unlabelled competitors tested. […] In a like manner, the USR was also able to compete for binding of these proteins to the DSR.
(§5) To ascertain if Z1 and Z2 show any differences in binding activity, the stability of Z1 and Z2 complexes with the DSR was examined in competition gel shift assays. Identical amounts of GST-Z1 and GST-Z2 were incubated with ^32P-labeled probe for 20 min, and then a 1000-fold molar excess of unlabeled competitor DSR was added. Samples were removed from the binding reactions at various times thereafter and loaded directly onto non-denaturing gels running at low voltage. After all the samples were loaded, the voltage was increased to 100V for 1 hr. After drying the gels, the signals in the shifted complexes were quantified by phosphoimaging.

The target in series [12] is T8, GST-Z2-P1 (Homo sapiens, UniProt Q9BWE0 SEQ:225-337).
T8 sequence: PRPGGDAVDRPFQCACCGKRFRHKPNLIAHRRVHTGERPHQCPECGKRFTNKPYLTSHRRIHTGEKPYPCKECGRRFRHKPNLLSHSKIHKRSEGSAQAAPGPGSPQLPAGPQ
The experiment in a line: EMSA; no multimers. Particulars: tags: GST N-terminal; label: 32P; 5' overhangs.

Series [13] concerns the target T9, GST-Z2-P123 (Homo sapiens, UniProt Q9BWE0 SEQ:1-147).
T9 sequence: T1 sequence
The experiment in a line: EMSA; multimers. To be noted: tags: GST N-terminal; label: 32P; 5' overhangs.

The target in series [14] is T7, GST-Z12. The experiment in a line: EMSA; specific. Particulars: tags: GST N-terminal; label: 32P; 5' overhangs. Here is the method: DSR (50 pmole) was labeled by Klenow fill-in reaction of 5' overhangs in the presence of [α-^32P]-dATP. Other probes were end-labeled with polynucleotide kinase and [γ-^32P]. Binding reactions (30 ul) contained 0.05 pmole labeled DSR probe, 40 mM KCl, 10 mM HEPES (pH 8.0), 4% Ficoll, 33 ng/ul poly dIdC, 1 mM DTT, 16.7 uM ZnCl_2, and 0.5–10 ug of protein. Binding reactions were incubated for 20 minutes at 37° C., 15 min on ice, and then resolved on 6% native polyacrylamide gels in 0.25×TBE buffer. Gels were dried, exposed to Kodak XAR film at −80° C., and signals were detected by autoradiography. Competition binding reactions were assembled as described above with the addition of 0.5, 5, or 50 pmole of unlabeled double-stranded competitor DNA to the reactions prior to the addition of protein. For time course competition assays, 60 ul binding reactions were assembled and incubated as above. […] Signals on the dried gels were quantified on a phosphoimager (BioRad model GS 525). A value for % probe bound was calculated as a ratio of protein-bound probe to total probe (bound and unbound probe) per sample and values were plotted against time. […]

For series [15], the target named is T5, GST-Z1 (RIP60 zinc fingers 1-5). In words: EMSA; competed by 100-fold DSR; less stable than GST-Z2. To be noted: tags: GST N-terminal; label: 32P; 5' overhangs. As to the method:
as §3, §4, §5

Consider casein kinase II, for which the “phosphorylation in vitro (32P-ATP, SDS gel, autoradiography)” value in series [1] is “Both GST-Z2 and GST-Z2P123 were phosphorylated”; in series [2] it was “Only the GST-Z2 polypeptide, which contains the casein kinase II phosphorylation domain was phosphorylated”; in series [3], “neither GST-Z1 nor GST-Z3 were phosphorylated to any great degree”; in series [4], “neither GST-Z1 nor GST-Z3 were phosphorylated to any great degree”. The “phosphorylation in vitro with and without DNA” value in [2] was “GST-Z2 polypeptide was phosphorylated by casein kinase II in the absence of DNA. However, the extent of phosphorylation increased in the presence of the double stranded DRS oligo, the linearized plasmid pCH127 and the supercoiled pCH127”.

B1: IBF (OCH13/OCH14) (dsDNA)
DNA 1: GATCCGGGAAGGCGGGCGCTGGGGGCGCTGCGGCGCTGCGCTCCACCT
DNA 2: GATCTAGGTGGAGCGCAGCGCCGCAGCGCCCCCAGCGCCCGCCTTCCCG
Turning to B1, the binding result in series [5] and in series [6] was “no binding” in each case.

B2: GST-Z2 (other)
chain: T2 sequence
notes: also called GST-Z2(P12); GST-Z2-P12; not shown: glutathione-S-transferase (GST) purification tag, 26 kD, encoded by pGEX-2T (Pharmacia Biotech), at the amino terminus
Regarding B2, the binding result in [7] was “binds”.

B3: Py-AT (OCH37/OCH38) (dsDNA)
DNA 1: CTGTTTTTTTTAGTATTAAGC
DNA 2: GCTTAATACTAAAAAAAACAG
For the molecule B3, the binding result in [6] is reported as “no binding”.

B4: USR (OCH39/OCH40) (dsDNA)
DNA 1: GATCTTAACAGTAATAATAAATATCT
DNA 2: GATCAGATATTTATTATTACTGTTAA
Regarding B4, the binding result in series [8], in series [9] and in series [10] was “binds” in each case.

B5: DSR (OCH7/OCH8) (dsDNA)
DNA 1: GATCTTTTATTATTATTATTAGTTCG
DNA 2: GATCCGAACTAATAATAATAATAAAA
On to B5, for which the binding result in [11], in series [12], in series [13], in series [14] and in [15] was “binds” each time.
